The values that follow come from PMC10397247.

Like-named read-outs stand apart in the source and are kept apart here.

One assay concerns the target T1, P4.
T1 chain: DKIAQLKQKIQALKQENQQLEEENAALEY
The assay can be described thus: two-hybrid library CCmax.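 Also: natural log of median RNA to DNA barcode read ratio; higher means stronger binding.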

Another assay has as its target T2, P4SN.
T2 chain: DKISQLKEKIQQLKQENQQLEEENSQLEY
Description: two-hybrid library CCmax.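 Also: natural log of median RNA to DNA barcode read ratio; higher means stronger binding.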 To be noted: mean of both orientations.

B1: P3_WRA (peptide)
chain: DEIQQLEEEIAQLEWKNAARKEKNAQLKA
Turning to B1, the interaction score was -1.51 in the assay with P4 and -1.65 in the assay with P4SN.

B2: P3_WA (peptide)
chain: DEIQQLEEEIAQLEWKNAALKEKNAQLKA
With B2, the figures for the interaction score in the assay with P4 (mean of both orientations) and in the assay with P4SN were 1.5 and 1.9, respectively.
